Experimental data taken from the nanobody polyreactivity screen of Harvey et al. (2022).

Assay: yeast display, Sf9 membrane polyspecificity reagent, FACS + sequencing; frameworks hold sequencing errors
Outline: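 After 36–48 hours of galactose induction, yeast (Saccharomyces cerevisiae BJ5465) displaying a synthetic nanobody library were stained at 4 °C for 1 hour with 10% biotinylated, detergent-solubilized Sf9 membrane reagent. Streptavidin microbeads enriched the stained cells before FACS sorting into low and high (top ~1%) gates on anti-HA and streptavidin fluorescence. Each clone's polyreactivity label reflects its gate of origin.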

QGHLVESGGGLVQAGGSRRLSCAASGRIFSPYALGWSRQGPGKERELVAAISSDDGITYYADSVKRRFTISRDNAKNTVYFQMNSLKPEDTAVYYCAADSGTRPAGDYWGQGTQVTVSS
polyreactivity (PSR sort gate): low polyreactivity

QVQLVESGGGLVQAGGSLRFSCAASGSIFITYAMGWSRQAPGKERELVAAIRDSGDRTYYADSVKGRFTISRDNAKNTVYLQMNSLKPEDTAVYYCNARWQEPLKYDYWGQGTQVTVSS
polyreactivity (PSR sort gate): low polyreactivity

QVQLVESGGCLVQAGGSLRLSCAASGLIFPSYAMGWYRQAPGKERELVAAITFSGSDTNYADSVKGRFTISRDNAKNTVYLQLYSLIPEDTAVYYCAAAYFDFWGWLHDYWGQGTQVTVSS
polyreactivity (PSR sort gate): low polyreactivity

QVQLQESGGGLVQAGGSLRLSCAASGNIVDADIMGWYRQAPGKERELVASITDGGSTNYADSVKGRFTISRDNAKNTVYLQMNSLKPVDTAVYNCAAIAYPDIPTYFDYDSEYFYWGQGTQVTVSS
polyreactivity (PSR sort gate): low polyreactivity

QVQLVESGGGLVQAGGSLRLSCAASGSIFSRNAMGWYRQAPGKVRELVAAITGSGSSTYYADSVKGRFTISRDNAKNTVYLQMNSLKPEDTAVYYCAKGSWWGYYSYGFDYWGQGTQVTVSS
polyreactivity (PSR sort gate): high polyreactivity

QVQLVESGGGLVQAGGSLRLSCAASGSLIGQNAMGWYRQAPGKERELVATISRSGARTYYADSVKGRFTISRDIAKNTVYLQMNSLKPEDTAVYYCAARLLSVGVPMYSWGQGTQVTVSS
polyreactivity (PSR sort gate): high polyreactivity

QVQLVESGGGLVQAGGSLRLSCAASGRIFLYYAMGWYRQAPGKERELVAAITSSGGGTYYADSVKGRFTISRDNAKNTVYLQMNSLKPEDTAVYYCNKAGPYYGYPHYLFYYWGQGTQVTVSS
polyreactivity (PSR sort gate): high polyreactivity

QVQLVESGGGLVQAGGSLRLSCAASGRIFRSYAMGGYRQAPGKERELVAAMTSGGSTNYADSVKGRFTISRDNAKNTVYLQMNSLKPEDTAVYYCNADRWKSGYWRYDYWGQGTQVTVSS
polyreactivity (PSR sort gate): low polyreactivity

QVQLVESGGGLVQAGGSLRLSCAASGLTFTPNAMGWYRQAPGKEREFVAAITWRGGRTYYADSVKGRFTISRDNAKNTVYLQMNSLKPEDTAVYYCAVTYRPTYQLDYWGQGTQVTVSS
polyreactivity (PSR sort gate): high polyreactivity

QVQLVESGGGLVQAGGSLRLSCAASGSIFYSNAMGWYRQAPGKERQLVAAIDSGTSTNYADSVKGRFTISRDNAKNTVYLQMNSLKPEDTAVYYCARLLGPVRDKYDYDYWGQGTQVTVSS
polyreactivity (PSR sort gate): low polyreactivity

QVQLVESGGGLVQAGGSLRVSCAASGYFFHYHAMGWYRHAPGKEREFVAAISQGGGSTYYADSVKGRFTISRDNAKKTVSLQMISLKPEDTAVYYCAADYRSGYREMDYWGQGTQVTVSS
polyreactivity (PSR sort gate): low polyreactivity

QVQLVESGGGLVQAGGSLRLRCAASGRIFGRNAMGWYRQAPGKERELVATISSGDTTDYADSVKGRFTISRDNAKNTVYLQMNSLKPEDTAVYYITIYNYWGQGTQVTVSS
polyreactivity (PSR sort gate): low polyreactivity

QVQLVESGGGLVQAGGSLRLSCAASGSTFRRYAMGWYRQAPGKEREISTSDGSTYYADSVKGRFTISRDNAKNTVYLQMNSLKPEDTAVYYCAADGYRQLIEDITDDYWGQGTQVTVSS
polyreactivity (PSR sort gate): low polyreactivity

QFQLVESGGGLVQAGGSLRLSCAASGSIFPPYVMGCYRQAPGKERELVATIDSGGSTYYADSVKGRFTISRDNAKNPVYLQINSLKPEDTAVYYCAARQVSVSVHQYGYWGQGTQVTVST
polyreactivity (PSR sort gate): low polyreactivity

QVQLLESGGGLVQAGGCLRLRCAASVRTFEQNAMGWCRRAPGKERELVASITSVGSTDYADSVKGRFTISRDNAKNTVYLQMNSLKPEDTAGYYCAKTLGSQNYDFDYWGQGTQVTVSS
polyreactivity (PSR sort gate): low polyreactivity

QVQLVESGGGLVQAGGSLRLSCAASGRIFGDYALGWYRQAPGKERELVAAISWSDGSTYYADSVKGRFTISRDKAKNTVYLQMNSLKPEDTAVYYCAAYGWGYSYVDVVVSDFYYWGQGTQVTVSS
polyreactivity (PSR sort gate): low polyreactivity

QVQLVESGGGLVQAGGSLRLSCAASGSIFLINAMGWYRQAPGKERELVAAISRSGGRTYYADSVKGRFTISRDNAKNTVYLEMNSLKPEDTAVYYCAVPSIYYAVRAYDYWGQGTQVTVSS
polyreactivity (PSR sort gate): high polyreactivity
